In the Human Domainome abundance scans (Beltran et al. 2025):
± gives the uncertainty stated by the source.

B1: Friend leukemia integration 1 transcription factor, residues 116 to 197; numbered along this chain, Q01543 (parent)
chain: NMTTNERRVIVPADPTLWTQEHVRQWLEWAIKEYSLMEIDTSFFQNMDGKELCKMNKEDFLRATTLYNTEVLLSHLSYLRES

Variants of: B1
Test: abundance fitness (aPCA) (normalised: wild type 0, dead -1); higher = more abundant; growth selection in yeast, the domain comes from the species named
Details: Homo sapiens

Row | Variant | abundance fitness
1 | S74K | 0.133 ± 0.12
2 | S74D | 0.014 ± 0.35
3 | S74M | -0.049 ± 0.11
4 | S74Q | -0.405 ± 0.25
5 | S74P | -0.417 ± 0.11
6 | S74F | -0.404 ± 0.19
7 | S74V | -0.567 ± 0.14
8 | S74C | -0.101 ± 0.17
9 | S74G | 0.026 ± 0.12
10 | S74H | -0.066 ± 0.18
11 | S74W | -0.561 ± 0.15
12 | S74Y | 0.134 ± 0.27
13 | S74A | 0.029 ± 0.1
14 | S74L | -0.28 ± 0.047
15 | S74E | 0.271 ± 0.16
16 | S74R | 0.042 ± 0.13
17 | S74T | -0.076 ± 0.12
18 | T69M | -0.444 ± 0.086
19 | T69E | -0.673 ± 0.19
20 | T69Q | -0.744 ± 0.18
21 | T69K | -0.816 ± 0.32
22 | T69C | -0.214 ± 0.12
23 | T69L | -0.561 ± 0.094
24 | T69Y | -0.295 ± 0.2

Row | Variant | abundance fitness
25 | T69S | -0.028 ± 0.06
26 | T69F | -0.799 ± 0.29
27 | T69A | 0.084 ± 0.11
28 | T69G | -0.184 ± 0.079
29 | A63T | -0.106 ± 0.083
30 | A63D | 0.012 ± 0.32
31 | A63L | 0.022 ± 0.055
32 | A63Y | 0.085 ± 0.19
33 | A63N | 0.36 ± 0.23
34 | A63K | -0.089 ± 0.1
35 | A63H | -0.161 ± 0.12
36 | A63V | 0.003 ± 0.062
37 | A63G | 0.018 ± 0.052
38 | A63M | 0.024 ± 0.079
39 | A63W | 0.002 ± 0.077
40 | A63F | -0.123 ± 0.16
41 | A63R | -0.041 ± 0.048
42 | A63E | -0.213 ± 0.087
43 | A63P | -0.954 ± 0.15
44 | S77T | 0.032 ± 0.33
45 | S77P | -0.216 ± 0.23
46 | R62L | 0.007 ± 0.055
47 | R62Q | 0.071 ± 0.1
48 | R62I | -0.728 ± 0.43

Row | Variant | abundance fitness
49 | R62T | -0.117 ± 0.11
50 | R62K | 0.087 ± 0.15
51 | R62P | -0.213 ± 0.09
52 | R62D | -0.4 ± 0.21
53 | R62F | -0.327 ± 0.2
54 | R62A | -0.159 ± 0.097
55 | R62N | -0.021 ± 0.16
56 | R62C | -0.23 ± 0.26
57 | R62S | 0.017 ± 0.059
58 | R62E | -0.01 ± 0.082
59 | R62H | -0.073 ± 0.18
60 | R62W | -0.325 ± 0.12
61 | R62V | 0.066 ± 0.072
62 | R62G | -0.016 ± 0.079
63 | E81D | -0.092 ± 0.23
64 | F60S | -0.881 ± 0.43
65 | F60Y | 0.152 ± 0.16
66 | F60G | -1.1 ± 0.28
67 | F60T | -0.918 ± 0.26
68 | F60C | -0.545 ± 0.21
69 | F60V | -0.433 ± 0.089
70 | F60R | -1 ± 0.17
71 | F60K | -0.801 ± 0.22
72 | F60A | -0.75 ± 0.17

Row | Variant | abundance fitness
73 | F60W | -0.114 ± 0.08
74 | F60P | -0.921 ± 0.11
75 | F60M | -0.277 ± 0.12
76 | F60Q | -0.938 ± 0.35
77 | F60L | -0.116 ± 0.06
78 | L61S | -0.105 ± 0.07
79 | L61T | -0.025 ± 0.13
80 | L61N | -0.371 ± 0.12
81 | L61D | -0.449 ± 0.22
82 | L61M | -0.123 ± 0.15
83 | L61W | -0.04 ± 0.081
84 | L61I | -0.268 ± 0.12
85 | L61G | -0.236 ± 0.069
86 | L61C | -0.396 ± 0.15
87 | L61P | -1.07 ± 0.34
88 | L61H | -0.36 ± 0.38
89 | L61E | -0.16 ± 0.093
90 | L61Q | 0.009 ± 0.1
91 | L61F | -0.307 ± 0.13
92 | L61K | -0.335 ± 0.17
93 | L61A | -0.13 ± 0.071
94 | L61V | -0.13 ± 0.05
95 | E70R | -0.335 ± 0.066
96 | E70K | -0.167 ± 0.12

Row | Variant | abundance fitness
97 | E70A | -0.598 ± 0.12
98 | E70V | -0.363 ± 0.089
99 | E70C | -0.448 ± 0.14
100 | E70H | -0.001 ± 0.17
101 | E70Q | -0.078 ± 0.11
102 | E70M | -0.239 ± 0.11
103 | E70D | 0.092 ± 0.12
104 | E70S | -0.107 ± 0.071
105 | E70I | -0.726 ± 0.46
106 | E70T | -0.213 ± 0.081
107 | E70L | -0.507 ± 0.079
108 | E70N | -0.124 ± 0.28
109 | E70W | -0.944 ± 0.21
110 | E70P | -0.859 ± 0.28
111 | N68R | -0.547 ± 0.081
112 | N68G | -0.125 ± 0.074
113 | N68T | -0.146 ± 0.078
114 | N68S | -0.083 ± 0.064
115 | N68F | -1.02 ± 0.42
116 | N68V | -0.376 ± 0.076
117 | N68L | -0.859 ± 0.12
118 | N68D | 0.156 ± 0.25
119 | N68C | -0.292 ± 0.11
120 | N68K | -0.898 ± 0.32

Row | Variant | abundance fitness
121 | N68A | -0.233 ± 0.083
122 | N68W | -0.911 ± 0.16
123 | N68Q | -0.167 ± 0.089
124 | N68E | -0.022 ± 0.094
125 | N68Y | -0.797 ± 0.29
126 | V71K | 0.051 ± 0.14
127 | V71N | -0.391 ± 0.23
128 | V71G | -0.677 ± 0.13
129 | V71F | -0.215 ± 0.13
130 | V71A | -0.006 ± 0.086
131 | V71Y | -0.239 ± 0.29
132 | V71W | -0.047 ± 0.079
133 | V71L | -0.093 ± 0.052
134 | V71C | 0.094 ± 0.16
135 | V71S | -0.147 ± 0.066
136 | V71M | -0.065 ± 0.09
137 | V71E | -0.368 ± 0.18
138 | V71I | 0.263 ± 0.17
139 | V71Q | -0.035 ± 0.07
140 | V71R | 0.02 ± 0.062
141 | V71P | -0.401 ± 0.12
142 | V71T | -0.145 ± 0.12
143 | R80S | 0.103 ± 0.37
144 | S82F | -0.112 ± 0.27

Row | Variant | abundance fitness
145 | S82P | -0.125 ± 0.46
146 | Y78V | 0.124 ± 0.22
147 | D59V | -0.211 ± 0.071
148 | D59W | -0.106 ± 0.067
149 | D59R | -0.327 ± 0.066
150 | D59M | -0.17 ± 0.076
151 | D59H | -0.177 ± 0.23
152 | D59F | -0.144 ± 0.16
153 | D59I | -0.607 ± 0.31
154 | D59T | -0.189 ± 0.086
155 | D59P | -0.882 ± 0.14
156 | D59Y | -0.045 ± 0.21
157 | D59C | -0.046 ± 0.11
158 | D59Q | -0.087 ± 0.068
159 | D59K | -0.052 ± 0.13
160 | D59A | -0.035 ± 0.084
161 | D59G | -0.058 ± 0.075
162 | D59E | -0.184 ± 0.1
163 | D59S | -0.126 ± 0.085
164 | L72F | -0.231 ± 0.12
165 | L72G | -1.01 ± 0.22
166 | L72P | -0.78 ± 0.22
167 | L72I | 0.063 ± 0.33
